Molecular target: neonatal Fc receptor (FcRn) (UniProt P55899)
Assay: FcRn binding assay

Chain of UniProt P55899 (P55899 whole entry, looked up, tested part not stated): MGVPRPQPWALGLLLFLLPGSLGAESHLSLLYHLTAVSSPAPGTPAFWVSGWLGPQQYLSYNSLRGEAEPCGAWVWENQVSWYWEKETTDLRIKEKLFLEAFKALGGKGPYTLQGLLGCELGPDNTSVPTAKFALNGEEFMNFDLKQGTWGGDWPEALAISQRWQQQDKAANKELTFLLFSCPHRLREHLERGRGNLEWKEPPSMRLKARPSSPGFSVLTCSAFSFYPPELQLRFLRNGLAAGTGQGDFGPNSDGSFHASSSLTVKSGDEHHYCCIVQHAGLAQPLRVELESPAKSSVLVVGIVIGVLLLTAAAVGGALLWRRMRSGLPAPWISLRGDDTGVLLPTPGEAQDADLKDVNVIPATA

FcRn binding relative to control tralokinumab: 87%
Substance: Fc deglycosylated tralokinumab (antibody)
